Assay results taken from the supplement of paper PMC10567573.

B1: FEM1A (parent)
chain: PCCSSSPEEPLNGESYESCCPTSR

Variants of: B1
Assay: protein stability index of a GFP-peptide fusion (GPS, HEK-293T) (PSI 1-6); higher = more stable
Settings: c terminus: a fixed tail appended
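Also: lentivirally expressed fusions sorted by FACS into six bins by GFP to DsRed ratio, PSI derived from sequencing read proportions per bin multiplied by bin number.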

Question: Which protein stability index does the source give for E9K here?
Answer: 3.41

Question: For E9A, which protein stability index is on record?
Answer: 3.39

Question: For E9I, which protein stability index is on record?
Answer: 3.33

Question: For E9N, which protein stability index is on record?
Answer: 3.64

Question: Which protein stability index does the source give for E9W here?
Answer: 2.02

Question: For E9S, which protein stability index is on record?
Answer: 2.88

Question: With E9G as the variant, how does the protein stability index read?
Answer: 3.67

Question: Which protein stability index does the source give for E9M here?
Answer: 2.69

Question: Which protein stability index does the source give for E9V here?
Answer: 3.08

Question: With E9Y as the variant, how does the protein stability index read?
Answer: 2.77

Question: Which protein stability index does the source give for E9R here?
Answer: 3.35

Question: For E9Q, which protein stability index is on record?
Answer: 3.52

Question: With E9H as the variant, how does the protein stability index read?
Answer: 3.67

Question: With E9F as the variant, how does the protein stability index read?
Answer: 2.87

Question: For E9L, which protein stability index is on record?
Answer: 2.69

Question: Which protein stability index does the source give for E9P here?
Answer: 3.36

Question: Which protein stability index does the source give for E9D here?
Answer: 3.64

Question: With E9C as the variant, how does the protein stability index read?
Answer: 3.21

Question: For E9T, which protein stability index is on record?
Answer: 3.34

Question: Which protein stability index does the source give for S6D here?
Answer: 3.92

Question: With S6P as the variant, how does the protein stability index read?
Answer: 3.76

Question: With S6G as the variant, how does the protein stability index read?
Answer: 3.53

Question: With S6I as the variant, how does the protein stability index read?
Answer: 3.7

Question: Which protein stability index does the source give for S6F here?
Answer: 3.13

Question: With S6V as the variant, how does the protein stability index read?
Answer: 3.8

Question: Which protein stability index does the source give for S6W here?
Answer: 3.27

Question: Which protein stability index does the source give for S6K here?
Answer: 3.18

Question: With S6L as the variant, how does the protein stability index read?
Answer: 2.91

Question: For S6T, which protein stability index is on record?
Answer: 3.93

Question: With S6N as the variant, how does the protein stability index read?
Answer: 3.81

Question: For S6A, which protein stability index is on record?
Answer: 3.22

Question: Which protein stability index does the source give for S6Y here?
Answer: 2.97

Question: With S6H as the variant, how does the protein stability index read?
Answer: 3.4

Question: For S6M, which protein stability index is on record?
Answer: 3.57

Question: For S6E, which protein stability index is on record?
Answer: 4.01

Question: Which protein stability index does the source give for S6C here?
Answer: 3.63

Question: Which protein stability index does the source give for S6R here?
Answer: 3.66

Question: Which protein stability index does the source give for S6Q here?
Answer: 4.11

Question: For P7Q, which protein stability index is on record?
Answer: 4.44

Question: With P7I as the variant, how does the protein stability index read?
Answer: 3.03

Question: For P7L, which protein stability index is on record?
Answer: 3.07

Question: For P7N, which protein stability index is on record?
Answer: 3.14

Question: Which protein stability index does the source give for P7W here?
Answer: 2.44

Question: For P7S, which protein stability index is on record?
Answer: 3.62

Question: With P7C as the variant, how does the protein stability index read?
Answer: 3.67

Question: Which protein stability index does the source give for P7D here?
Answer: 4.65

Question: Which protein stability index does the source give for P7H here?
Answer: 3.37

Question: With P7F as the variant, how does the protein stability index read?
Answer: 3.51

Question: Which protein stability index does the source give for P7Y here?
Answer: 3.02

Question: With P7K as the variant, how does the protein stability index read?
Answer: 3.65

Question: Which protein stability index does the source give for P7E here?
Answer: 3.93

Question: For P7V, which protein stability index is on record?
Answer: 4.45

Question: Which protein stability index does the source give for P7T here?
Answer: 3.29

Question: With P7A as the variant, how does the protein stability index read?
Answer: 3.34

Question: For P7G, which protein stability index is on record?
Answer: 3.38

Question: With P7M as the variant, how does the protein stability index read?
Answer: 3.11

Question: With C2V as the variant, how does the protein stability index read?
Answer: 5.21

Question: Which protein stability index does the source give for C2P here?
Answer: 5.66

Question: With C2T as the variant, how does the protein stability index read?
Answer: 5.23

Question: Which protein stability index does the source give for C2D here?
Answer: 5.12

Question: For C2S, which protein stability index is on record?
Answer: 4.21

Question: With C2N as the variant, how does the protein stability index read?
Answer: 5.15

Question: For C2Y, which protein stability index is on record?
Answer: 4.62

Question: With C2G as the variant, how does the protein stability index read?
Answer: 4.19

Question: With C2W as the variant, how does the protein stability index read?
Answer: 4.37

Question: With C2M as the variant, how does the protein stability index read?
Answer: 4.98

Question: Which protein stability index does the source give for C2F here?
Answer: 4.55

Question: For C2Q, which protein stability index is on record?
Answer: 4.89

Question: For C2I, which protein stability index is on record?
Answer: 3.92

Question: Which protein stability index does the source give for C2E here?
Answer: 4.77

Question: For C2K, which protein stability index is on record?
Answer: 4.65

Question: Which protein stability index does the source give for C2H here?
Answer: 4.79

Question: Which protein stability index does the source give for C2L here?
Answer: 4.75

Question: With N12E as the variant, how does the protein stability index read?
Answer: 4.42

Question: For N12G, which protein stability index is on record?
Answer: 3.88

Question: With N12A as the variant, how does the protein stability index read?
Answer: 3.71

Question: Which protein stability index does the source give for N12D here?
Answer: 4.86

Question: Which protein stability index does the source give for N12F here?
Answer: 3.01

Question: Which protein stability index does the source give for N12C here?
Answer: 3.43

Question: With P10V as the variant, how does the protein stability index read?
Answer: 3.73

Question: With P10D as the variant, how does the protein stability index read?
Answer: 4.17

Question: Which protein stability index does the source give for P10L here?
Answer: 3.41

Question: For P10Y, which protein stability index is on record?
Answer: 3.14

Question: With P10A as the variant, how does the protein stability index read?
Answer: 4.07

Question: For P10E, which protein stability index is on record?
Answer: 3.7

Question: With P10C as the variant, how does the protein stability index read?
Answer: 3.46

Question: Which protein stability index does the source give for P10S here?
Answer: 3.91

Question: For P10F, which protein stability index is on record?
Answer: 3.5

Question: For P10H, which protein stability index is on record?
Answer: 3.46

Question: Which protein stability index does the source give for P10K here?
Answer: 3.5

Question: With P10T as the variant, how does the protein stability index read?
Answer: 3.1

Question: Which protein stability index does the source give for P10M here?
Answer: 3.73

Question: With P10W as the variant, how does the protein stability index read?
Answer: 2.25

Question: With P10N as the variant, how does the protein stability index read?
Answer: 2.96

Question: Which protein stability index does the source give for P10Q here?
Answer: 3.65

Question: For P10I, which protein stability index is on record?
Answer: 3.6

Question: With P10R as the variant, how does the protein stability index read?
Answer: 3.82

Question: For L11V, which protein stability index is on record?
Answer: 4.2

Question: Which protein stability index does the source give for L11T here?
Answer: 4.11

Question: With L11E as the variant, how does the protein stability index read?
Answer: 3.5

Question: Which protein stability index does the source give for L11P here?
Answer: 4.08

Question: Which protein stability index does the source give for L11I here?
Answer: 3.72

Question: With L11H as the variant, how does the protein stability index read?
Answer: 4.2

Question: Which protein stability index does the source give for L11N here?
Answer: 4.57

Question: Which protein stability index does the source give for L11Y here?
Answer: 3.55

Question: For L11D, which protein stability index is on record?
Answer: 3.94

Question: Which protein stability index does the source give for L11A here?
Answer: 4.52

Question: For L11S, which protein stability index is on record?
Answer: 3.84

Question: For L11R, which protein stability index is on record?
Answer: 3.93

Question: For L11M, which protein stability index is on record?
Answer: 3.79

Question: Which protein stability index does the source give for L11G here?
Answer: 3.81

Question: With L11K as the variant, how does the protein stability index read?
Answer: 3.77

Question: With L11W as the variant, how does the protein stability index read?
Answer: 2.82

Question: With L11F as the variant, how does the protein stability index read?
Answer: 3.75

Question: Which protein stability index does the source give for L11C here?
Answer: 3.54

Question: For L11Q, which protein stability index is on record?
Answer: 3.86

Question: Which protein stability index does the source give for S5R here?
Answer: 3.28

Question: For S5G, which protein stability index is on record?
Answer: 3.66

Question: With S5Y as the variant, how does the protein stability index read?
Answer: 2.6

Question: For S5L, which protein stability index is on record?
Answer: 3.02

Question: For S5I, which protein stability index is on record?
Answer: 3.4

Question: For S5C, which protein stability index is on record?
Answer: 3.38

Question: Which protein stability index does the source give for S5M here?
Answer: 2.53

Question: For S5F, which protein stability index is on record?
Answer: 2.48

Question: With S5E as the variant, how does the protein stability index read?
Answer: 4.24

Question: For S5K, which protein stability index is on record?
Answer: 2.85

Question: For S5T, which protein stability index is on record?
Answer: 3.9

Question: For S5H, which protein stability index is on record?
Answer: 4.12

Question: For S5A, which protein stability index is on record?
Answer: 3.49

Question: For S5Q, which protein stability index is on record?
Answer: 3.6

Question: Which protein stability index does the source give for S5P here?
Answer: 3.49

Question: For S5V, which protein stability index is on record?
Answer: 4.45

Question: Which protein stability index does the source give for S5W here?
Answer: 3.02

Question: With S5N as the variant, how does the protein stability index read?
Answer: 3.47

Question: Which protein stability index does the source give for S5D here?
Answer: 4.85

Question: For C3T, which protein stability index is on record?
Answer: 5.06

Question: Which protein stability index does the source give for C3I here?
Answer: 4.19

Question: With C3K as the variant, how does the protein stability index read?
Answer: 4.7

Question: Which protein stability index does the source give for C3P here?
Answer: 4.95

Question: Which protein stability index does the source give for C3A here?
Answer: 4.02

Question: For C3M, which protein stability index is on record?
Answer: 5.05

Question: With C3S as the variant, how does the protein stability index read?
Answer: 5.22

Question: Which protein stability index does the source give for C3R here?
Answer: 4.23

Question: For C3E, which protein stability index is on record?
Answer: 5.27

Question: Which protein stability index does the source give for C3Q here?
Answer: 5.4

Question: For C3W, which protein stability index is on record?
Answer: 4.79

Question: Which protein stability index does the source give for C3L here?
Answer: 4.76

Question: Which protein stability index does the source give for C3N here?
Answer: 4.75

Question: Which protein stability index does the source give for C3D here?
Answer: 5.82

Question: With C3F as the variant, how does the protein stability index read?
Answer: 4.83

Question: For C3Y, which protein stability index is on record?
Answer: 4.66

Question: For C3G, which protein stability index is on record?
Answer: 4.91

Question: For C3H, which protein stability index is on record?
Answer: 4.85

Question: For C3V, which protein stability index is on record?
Answer: 5

Question: For S4I, which protein stability index is on record?
Answer: 3.81

Question: With S4N as the variant, how does the protein stability index read?
Answer: 3.95

Question: For S4A, which protein stability index is on record?
Answer: 3.72

Question: With S4L as the variant, how does the protein stability index read?
Answer: 2.98

Question: For S4F, which protein stability index is on record?
Answer: 3.33

Question: With S4Q as the variant, how does the protein stability index read?
Answer: 3.67

Question: Which protein stability index does the source give for S4P here?
Answer: 4.58

Question: With S4T as the variant, how does the protein stability index read?
Answer: 4.13

Question: Which protein stability index does the source give for S4G here?
Answer: 3.5

Question: Which protein stability index does the source give for S4R here?
Answer: 3.14

Question: With S4Y as the variant, how does the protein stability index read?
Answer: 3.37

Question: For S4C, which protein stability index is on record?
Answer: 1.94

Question: With S4V as the variant, how does the protein stability index read?
Answer: 4.1
